Measured values: the DeepSol protein solubility set

Test: soluble on expression in E. coli; label from the status in PepcDB or PDB records

Sequence	soluble on expression in E. coli
MGSDKIHHHHHHMIGKIEPLGTSTGKILYNSHCQNILDLSVAETMEIFKSSGVILFRDFGVTPKQMKDFSEQFSGKHIIDFTKVSIDSDKYVNFVDGGMDGLIPHCENSCFPFRPDVIWFCCTVPAEQEGETLFWDGIRVWEELSQESKQLFLSKQLKFSYKNVPVDILKGIIGSNANTIDDIKQRLDSVDGVSYQFNDDKTVSVEYTCSSVVNNKYNHQNAFANHFWVYQKRTEEAIFDDGSRASDEVADEIERIFDKLTEKIPWKAGDLVMMDNSRFLHGRGAFTDNRRQVFTTLSNLKF	not soluble
MGSDKIHHHHHHMIHFVPPHLEKVRAKLPEIAPTVDVILANLEDAIPADAKGAALAGLVAMSREVDFKALGVGFWTRINCLNSPWHLDEIATIVEKAGDKIDVIMVPKVEGPWDIFYMDQLLASLEAKHGVTRPILLHAILETAEGVMNVEAIAAASPRMQGISLGPADLAASRAMKTTRVGGGHPGYRVIEDPHADGSARVSVQQDLWHYTFAKMVDACAAHGIKPFYGPFGAIDDPVACEQQFRNAFLMGCAGAWSLHPSQIEIAKRVFSPDPAEVAFAKKILEAMPDGTGVAMIDGKMQDDATWKQAKVMVDCARQIAGKDAEYAGLYGL	not soluble
MGSDKIHHHHHHMIHLAVGRFNIDIIVKLDSIPPIDSSHMTDVLEIMPGGAATNYAVAVTKLGHSAKLLAKVGKSEVVRSLMEKVVELGVGLEYVEELNEKPSATLIFLRNDGTLSMVRRLGASILLTREDVKRRFGLFDVIHFASVSPNVVVRDPYAKLVSYDPGPQAKNIESVDVDILYVNEKEYEMIEDKNIRARFIVIKMGKKGAKIITETEECSVEPIQVEKIVDTTGAGDTFDAAFNVTYSEDKDIVKSLQVASVASGLKVSRIGGISSPTLEEVREYLRKKKPNVICK	not soluble
MGSDKIHHHHHHMIIDTSCYPTNLVDLAWRHDGEPFSGERLIQMMDGPFTINGKPRRIDKAFIQPPQGNTIYTWTDGEKSGSESIDAYMAYTVEMVKKYPDRFIGCFVYNPRCGVQNGVNAIEHYVKTLGFKMVQFQANMHAYRPDRALDWLRPALQKCAELGVLVKLHTGDGPYSIPTEWVPMMKEFPTVNFIMAHFGVQTGGVYCFEPFQMAMDMPNVYCESGWCLQSRIVEFAKVLPKHKILFGSDTPPNEPGMWLRLLEVLCFEPPQGLNLDEDTLEDYLGNNVARMIGLEPTPVPRTLEEARARLAA	not soluble
MGSDKIHHHHHHMIKEFNATVRYLESVLESEIDEREFLRISGYSVPMFSRLFSILTDMSLSEYVRLRKLTRAAMDIREGQAKIIDIAFKYGYESSDSFAFAFKQFHQISPSQVRKGLPFKVLLPLQLSLTIQGGKEMDVRIEKKAGFTVAGLLRTAISNEVCPQVWEDLFKNHTYEELAALGSGQSFGVCTLAQADETINYMAAYDVTDSEKATKLGLELLDVHEADYAIFTLIGPVPQSIHAGWRYALETFFPEHGYRHSGAPDFEYYFEGDMSSPDYQMELWIPIVKA	not soluble
MGSDKIHHHHHHMIKVSQLTVRYGELKAVEDLSLEVQRGEILSLVGPSGCGKTTVVKAILGLIPYEGKIEIFTSRLGYCPQKDVLFDWMTVYENAVLPLVLRKEQPPSNIKELFERFGLSGFEEKRPYQLSGGMRQKLSLLRAVLSGEELLVLDEPFSSVDAYTRKKLQIWLSEIVHRMKSTVVLITHDVEEAVFLSDRILILSDRPARILKEIRVPFSKPRTIKTFSDPRFSEIEEEVLETLMNQP	not soluble
MGSDKIHHHHHHMILSKTGIRHKEDLVPPANGVDVGIIKIGDGRVMSVTTDPFYFDPVFGYEDSAWFAYHILASDLLTSGANPDYMTVDLNLPLSMTDEEISRMWNAFTEEAARFGTSIITGHTARYAGTSFPMIGGITAMGFIGEDEYVTSAMARPGDKVVLTKTPAIEAAALLTRLFPGTIKAKLGDELFSYGVDLFRKLTTVHESLVCKRFGLRTRVTAMHDVTEGGLLGALFEIADSSGNGIRIHEDSIKVDDYVKRVCSIFSIDPLMAISEGALLITVKPDHAEDLVSSLKANGIDANVIGEMTADPSERIIVGREKRTIGPPQKDPFWTAVEFGISEDWK	not soluble
MGSDKIHHHHHHMILVTGANGLVGSFLCNELAGKGYRVKALVREKSDTSLLKAVAGSIELVYGDITDAGSLVDAMEDVMCVVHTAAVISFWNKKNKEMYQTNVVGTRNVVDVALEKGVKKMIHISSIAAIGRKATDTRIDEKNNWEESAVNTAYAVTKHQAELEIFRAVEEGLHAVIINPSVILGPGLKGTSSVRLFEYVQQKGKFYTDGDLNYVDVRDVVESIEYFISHETPAGERYILNGGTVSFKTFFEKIAEMLHTNPPSVKASDWMKQIVWRVEAIKAFITGKEPLITKSTARTATNKFEYSADKIMQLSQRSFRPLQDTIYWTCKQLF	not soluble
MGSDKIHHHHHHMINENQHMTEREPSTRRIKSMQTASEVLRELQSQSEATLSDLCGNIDVAKSTLHTYLQTLVAEGFIDKSDGVYRLGLRFIPLGESVRNRIDLYQLGKEEVKRLAEETNEWVHLTVAYRSREVTLYEHNGGETVAVDYQRRTRESPQYLHCTATGKALLAYFDDDRVTETVATEGLVQQTEQTITDPDELREELEEIRARGYAVNDEEEIRGMRSVGAPIQDVDGTVCGAISVTAPKTRLSGDYLYNDLPELVMEAANIIEINLESAAASGE	not soluble
MGSDKIHHHHHHMINETRTTLDQSEVDHFSRIAAEWWNPHGKFRPLHQFNPTRLAYIREKICLELHRDPVSLKPFENLKILDIGCGGGLLCEPMARLGAMVVGADASQTNIEVAKIHAAQNGLSIDYRTTTAEALATEGEQFDIILNMEVVEHVADVNLFIEATAKMLKPQGLMFISTLNRTWKAWGLAIIGAEYILRWLPKGTHNYKKFLKPRELKNLLLQNALTVVDEIGVTYNPLNDSWNRSKDMNVNYLLLAKKS	not soluble
MGSDKIHHHHHHMINFLPYSLDILRAADRDRYISVLFAPKKKRRALAALYAFNAEIARIRENVHNPLIGEIRLRWWYDSIAKSEMEKSESNPILSDLFMAMTLFNLPKTAFLRYCDAQILDLYHNPIATLYDLEFYCGETASIILQLSCQILDPDMAQNFTDAYQHAGIAQGLSGVLRLLSFMQSRYQYYLPADMLKALGIKREELESNRISKEQKCHVIEAMVALSRDHYNRFYEYFNMMPKTLKPAFLPLAIIPASLQKAIQLGAAVFQENAALPLLHRYWFITKAAISSNLPKIL	not soluble
MGSDKIHHHHHHMINSRARRNLIAQDSGEHRHDFPQILIGWRGEIECEFSKGSGRLNNGLVGIVPNAAEHLFRGLNNNSELLVIDVVLEDPYIQAMEQACNLSFSETLFKQPHFVSLAPEMLPLLEYSANQLLLDKKTATPQLNCQLVSLFMTQLSQMYSPEIKSSAINQRIEATRLNDIIDQRLARPPNNTELANLLHLSESHFYCICQQQFGVSPQKYVMRRRMQRAKFLLLNSKIPLSALASELGFSDVSSFSRAYKKYYQQPPGQTRTLFQLGLNANHASIRK	not soluble
MGSDKIHHHHHHMINTDHPIRIAIAGLGFGESVHIPASLSNKNIELVGLWHPRPERLKEACNKHNLRAYETWEDLVNDSKVDGIIIATPPAPRYELALEAIKGGKHLLLEKPTCLNAYEVMELQRNALKRNLKIAVDYEYRAVPLFMQAKRIITEKKLDEPYFVKLDWLMSSRANPDRPWNWYSDENSGGGVLGALGTHAFDMIHWLIGPTHSLSAINSTSIEERECPQSKTIKKVTSEDVSISQLQIKSINNNLIPAQVNLSAVTKQSRGFSLEIYGSNGTLVLSSENQNDYVHGFGLWYSNKGDVLKNIQPDSDLSFSKIWTDGRIAPVARIQNWWAQSIADGTPVIPGLVEGLASQIVCDKVKESNSIGMKIEIN	not soluble
MGSDKIHHHHHHMINVLILGAASQISRFLIPDLLADKTVYLTLFARQAPQRLGQYAGESRVTLVDGDWNQEADIEQVMSNQDIVFLASSSLVGNQNVVTVMKHTGVQRLIVAGGLGIDDEVAGKFGNWNTRMMGDYTPYKQAAKVILDSGLNTTYLRMTWLYDENGNEKYQIVPEGQPLRGTQVTRQAVAKLVTAIVRQPSLYQYANIGVVEPGTEWDKPSFY	not soluble
MGSDKIHHHHHHMIPEKKSIAIMKELSIGNTKQMLMINGVDVKNPLLLFLHGGPGTPQIGYVRHYQKELEQYFTVVHWDQRGSGLSYSKRISHHSMTINHFIKDTIQVTQWLLAHFSKSKLYLAGHSWGSILALHVLQQRPDLFYTYYGISQVVNPQDEESTAYQHIREISESKKASILSFLTRFIGAPPWKQDIQHLIYRFCVELTRGGFTHRHRQSLAVLFQMLTGNEYGVRNMHSFLNGLRFSKKHLTDELYRFNAFTSVPSIKVPCVFISGKHDLIVPAEISKQYYQELEAPEKRWFQFENSAHTPHIEEPSLFANTLSRHARNHL	not soluble
MGSDKIHHHHHHMIQTPVIVTFANQKGGVGKTTLCVTFANYLVAKGVRVLVIDCDFQHSIMKCRKADIKKYGEEQLPYEVWSYEPNNKVEMTSLVEKLHNDPEIDVVLIDSPGSLKAEGLVPIFVNSDIIVVPFHYDLVTIPSTASFLLFLDRLRQAVGERMKAQLFIIPNLNDNRVGKRSELILWDNTRETFSNYGYVTGKIPRRADMERFSTIAALDMQYRYVSSVFDKIYFSIFDKTGPIREMELSGIQLTENLYPKSGKKKYQAETSTHIALDEAEDEEQENNSEHQHNQ	not soluble
MGSDKIHHHHHHMIRFRNFWLPIWNRKMSMKNLYENDLLYRTTGPALRPGGFELTDWAVEHCRFQAGDRILDVGCGRGATVNRLRSHYHLEAYGIDPSATLLTLGQETYPDLPLSKGRGEDIPFTNSCFDGVFVECSLSLMTDPDQALSEIRRVLKVKGKLIIHDVYARNPQGTPDLRELNIGTCIRNALVKEDLEHGLESKGLRTIHWQDHSPLLNRLMMELIMTHGSMSAFWLKSTDCSADPNRVQAALKKAKVGYFQLIAEKEAEKEAEHCPVR	not soluble
MGSDKIHHHHHHMIRINVVGFKGGSGKSTISYHLARQLSEYYNVVLVDKTYSGTISRIYNINNNIFSFLKGRNELFYINKNNLSVINMSFLNEDDLNGIDFNAFKYLYSKLTKDSDIVIVDHSSIPHDFATEIELKAFMENFRNFAYNTVLVLSGDEIPIKKYLNYTVLLNDFVKNYAEKILGISLPTDVKFLKIVAVIINKILKGQESKLEEFIRGDEILQRSARFIIPYYLSLTQRHFKDIDPPKEISDITRYILDFLREPTSIL	not soluble
MGSDKIHHHHHHMISFFLSDLIKSILNIQDNNISFSEEECCQVTQKGDYLLKVFKGFLKSDYCTCPHCSSKNIVKNGSRHRKIKYIPIQNYNIELELTVQRYICKDCKKNFSPSTNIVSDNSSISNNLKYAIALELQKNISLTSIAKRYNISIPSVQRIMDNCYSDFKVNKKHLPEAICIDEFKSVKNIDGAMSFVFADYQSKSIIDIVEDRRLHSLTEYFSRFSLEARNNVKYICMDMYTSYISLVNSIFPNAKIVLDKFHIVNLVNRAFNQTRISIMNSIQDDSLKRKFKLFWKSLLKYYPDLCQINYYCQSFKRKLSSKLSLRKKP	not soluble
MGSDKIHHHHHHMISNLYFVKLKNIGEHEFIKRYIKNYMDIKLLDDVFINEKRGYKVDGFKLSYAFPFMSLYDIGWKAISASTSDIIAKGVKPEFYLISLGLPPDFDVNKAEELIGGISDAIHYYGGRYVGGDLNDSDSNGWVDVFVEGEVLCDISDKVIDDGDLLVIGDYIGYTTNVFISYINNFNIQILPESLLKVKHPIVKKSLLFFMKKYCKFIKYSTDISDGLMVSLYKIVDNFNLGINITEIPIDKNVFNSLKLRLNLTELDILKYAGEEFLPLLIIDKNSPVKEMLAELQYLAFNPLIIGQVIHENRLITYKNTVIKNTGWDNFIGWY	not soluble
